Patent US20050026285A1 (Harvard, published 2005)

What was measured:
[1] = target: c-Jun (recombinant: overexpressed in 293T cells or in vitro translated); assay: cell-based or functional assay
[2] = target: c-Jun/c-Fos AP-1 complex; assay: cell-based or functional assay
[3] = target: endogenous KRC of EL4 T cells (UniProt A2A884 1-2348, limits assumed); assay: anti-c-Jun IP from PMA/ionomycin-stimulated EL4 cells, blot with anti-KRC antisera
Description: (§1) FIG. 21(A) 293T cells were transfected with c-Jun and myc-KRCtr. 48 hours later, lysates were immunoprecipitated with anti-Myc antibody. Immunoprecipitates were probed by western blotting with anti-c-Jun antibody. FIG. 21(B) (left panel) 293T cells were cotransfected with c-Jun and full length His-KRC. 48 hours later, lysates were immunoprecipitated with anti-His antibody (DE8 Omniprobe) and precipitates were probed by western blotting with anti-c-Jun antibody. (right panel) In vitro translated and S35-labelled c-Jun and His-KRCtr were mixed and immunoprecipitated with anti-His antibody. Recovered c-Jun protein was visualized by autoradiography. FIG. 21(C) Jurkat or EL4 T cells were stimulated with PMA plus ionomycin for 45 minutes. Lysates were immunoprecipitated with anti-c-Jun antibody, and immunoprecipitates were probed with specific anti-KRC rabbit antisera. FIG. 21(D) (upper panel) 293T cells were transfected with AP-1 Luciferase along with c-Jun, c-Fos, and KRC. 24 hours later, Luciferase activity was determined as above. […] 24 hours later, luciferase activity was determined as above. […]

[4] = target: T1, endogenous KRC of Jurkat T cells (human, UniProt Q5T1R4 1-2406, limits assumed); assay: anti-c-Jun IP from PMA/ionomycin-stimulated Jurkat cells, blot with anti-KRC antisera
T1 construct: Detected with anti-KRC rabbit antisera in anti-c-Jun immunoprecipitates
T1 sequence (Q5T1R4 whole entry): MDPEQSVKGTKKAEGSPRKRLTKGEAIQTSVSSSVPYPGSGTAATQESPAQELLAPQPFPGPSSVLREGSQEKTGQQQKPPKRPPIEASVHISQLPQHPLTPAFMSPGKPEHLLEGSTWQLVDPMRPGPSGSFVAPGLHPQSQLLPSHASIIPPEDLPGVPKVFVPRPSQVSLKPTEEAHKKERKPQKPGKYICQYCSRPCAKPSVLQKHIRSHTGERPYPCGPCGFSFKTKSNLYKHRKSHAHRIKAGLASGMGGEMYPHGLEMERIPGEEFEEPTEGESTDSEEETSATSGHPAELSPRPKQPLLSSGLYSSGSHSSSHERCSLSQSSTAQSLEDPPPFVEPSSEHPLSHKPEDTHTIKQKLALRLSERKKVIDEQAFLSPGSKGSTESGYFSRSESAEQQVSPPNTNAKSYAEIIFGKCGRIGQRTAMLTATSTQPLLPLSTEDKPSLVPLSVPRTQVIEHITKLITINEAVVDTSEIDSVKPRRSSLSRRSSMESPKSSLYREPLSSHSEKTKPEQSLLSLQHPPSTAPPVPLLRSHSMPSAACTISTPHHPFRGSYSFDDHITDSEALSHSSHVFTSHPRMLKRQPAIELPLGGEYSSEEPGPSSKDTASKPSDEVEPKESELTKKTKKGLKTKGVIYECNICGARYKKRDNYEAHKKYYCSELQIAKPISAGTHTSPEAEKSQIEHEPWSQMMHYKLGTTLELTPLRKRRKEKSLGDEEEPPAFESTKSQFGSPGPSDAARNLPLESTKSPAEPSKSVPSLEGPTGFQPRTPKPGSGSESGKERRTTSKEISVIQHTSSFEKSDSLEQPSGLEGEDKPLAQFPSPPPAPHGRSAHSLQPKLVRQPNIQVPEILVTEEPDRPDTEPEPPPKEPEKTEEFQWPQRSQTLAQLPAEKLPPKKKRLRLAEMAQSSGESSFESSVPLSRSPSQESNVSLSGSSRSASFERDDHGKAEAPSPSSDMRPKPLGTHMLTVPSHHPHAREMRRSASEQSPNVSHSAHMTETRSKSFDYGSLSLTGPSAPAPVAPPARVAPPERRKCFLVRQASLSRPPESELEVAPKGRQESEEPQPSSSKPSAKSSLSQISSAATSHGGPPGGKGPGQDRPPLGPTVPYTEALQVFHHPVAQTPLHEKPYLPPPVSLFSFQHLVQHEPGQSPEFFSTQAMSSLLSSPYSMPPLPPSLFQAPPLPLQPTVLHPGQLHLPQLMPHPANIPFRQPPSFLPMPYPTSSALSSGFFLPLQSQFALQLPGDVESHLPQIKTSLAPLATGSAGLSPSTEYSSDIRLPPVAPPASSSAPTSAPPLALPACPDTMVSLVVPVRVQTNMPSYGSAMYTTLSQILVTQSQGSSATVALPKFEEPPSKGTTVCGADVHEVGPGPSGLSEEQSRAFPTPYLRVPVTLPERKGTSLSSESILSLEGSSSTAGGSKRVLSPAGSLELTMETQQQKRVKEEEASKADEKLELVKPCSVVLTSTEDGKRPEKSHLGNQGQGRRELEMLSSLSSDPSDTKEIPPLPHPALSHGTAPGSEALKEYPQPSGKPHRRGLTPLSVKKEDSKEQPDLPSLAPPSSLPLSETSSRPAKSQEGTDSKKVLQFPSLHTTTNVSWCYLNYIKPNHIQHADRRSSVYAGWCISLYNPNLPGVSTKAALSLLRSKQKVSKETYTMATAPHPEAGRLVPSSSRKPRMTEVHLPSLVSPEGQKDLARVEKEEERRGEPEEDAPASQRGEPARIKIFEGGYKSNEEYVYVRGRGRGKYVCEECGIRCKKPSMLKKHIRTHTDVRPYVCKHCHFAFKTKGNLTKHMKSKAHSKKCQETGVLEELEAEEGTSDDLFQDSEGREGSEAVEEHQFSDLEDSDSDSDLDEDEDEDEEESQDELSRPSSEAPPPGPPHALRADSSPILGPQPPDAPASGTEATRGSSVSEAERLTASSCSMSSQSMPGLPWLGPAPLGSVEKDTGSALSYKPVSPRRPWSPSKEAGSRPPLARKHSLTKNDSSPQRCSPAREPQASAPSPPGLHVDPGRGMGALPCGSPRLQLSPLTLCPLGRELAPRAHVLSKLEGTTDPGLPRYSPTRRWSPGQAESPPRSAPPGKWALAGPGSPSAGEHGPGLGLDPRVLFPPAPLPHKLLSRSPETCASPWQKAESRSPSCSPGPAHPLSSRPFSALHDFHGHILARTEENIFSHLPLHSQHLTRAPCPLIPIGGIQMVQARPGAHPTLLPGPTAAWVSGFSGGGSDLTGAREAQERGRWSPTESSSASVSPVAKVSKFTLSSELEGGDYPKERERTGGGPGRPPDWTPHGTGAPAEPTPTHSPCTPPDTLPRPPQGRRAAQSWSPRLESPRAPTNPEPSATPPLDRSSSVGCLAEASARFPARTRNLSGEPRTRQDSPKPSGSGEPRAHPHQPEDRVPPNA
Description: as §1

Chain of endogenous KRC of EL4 T cells (A2A884 whole entry): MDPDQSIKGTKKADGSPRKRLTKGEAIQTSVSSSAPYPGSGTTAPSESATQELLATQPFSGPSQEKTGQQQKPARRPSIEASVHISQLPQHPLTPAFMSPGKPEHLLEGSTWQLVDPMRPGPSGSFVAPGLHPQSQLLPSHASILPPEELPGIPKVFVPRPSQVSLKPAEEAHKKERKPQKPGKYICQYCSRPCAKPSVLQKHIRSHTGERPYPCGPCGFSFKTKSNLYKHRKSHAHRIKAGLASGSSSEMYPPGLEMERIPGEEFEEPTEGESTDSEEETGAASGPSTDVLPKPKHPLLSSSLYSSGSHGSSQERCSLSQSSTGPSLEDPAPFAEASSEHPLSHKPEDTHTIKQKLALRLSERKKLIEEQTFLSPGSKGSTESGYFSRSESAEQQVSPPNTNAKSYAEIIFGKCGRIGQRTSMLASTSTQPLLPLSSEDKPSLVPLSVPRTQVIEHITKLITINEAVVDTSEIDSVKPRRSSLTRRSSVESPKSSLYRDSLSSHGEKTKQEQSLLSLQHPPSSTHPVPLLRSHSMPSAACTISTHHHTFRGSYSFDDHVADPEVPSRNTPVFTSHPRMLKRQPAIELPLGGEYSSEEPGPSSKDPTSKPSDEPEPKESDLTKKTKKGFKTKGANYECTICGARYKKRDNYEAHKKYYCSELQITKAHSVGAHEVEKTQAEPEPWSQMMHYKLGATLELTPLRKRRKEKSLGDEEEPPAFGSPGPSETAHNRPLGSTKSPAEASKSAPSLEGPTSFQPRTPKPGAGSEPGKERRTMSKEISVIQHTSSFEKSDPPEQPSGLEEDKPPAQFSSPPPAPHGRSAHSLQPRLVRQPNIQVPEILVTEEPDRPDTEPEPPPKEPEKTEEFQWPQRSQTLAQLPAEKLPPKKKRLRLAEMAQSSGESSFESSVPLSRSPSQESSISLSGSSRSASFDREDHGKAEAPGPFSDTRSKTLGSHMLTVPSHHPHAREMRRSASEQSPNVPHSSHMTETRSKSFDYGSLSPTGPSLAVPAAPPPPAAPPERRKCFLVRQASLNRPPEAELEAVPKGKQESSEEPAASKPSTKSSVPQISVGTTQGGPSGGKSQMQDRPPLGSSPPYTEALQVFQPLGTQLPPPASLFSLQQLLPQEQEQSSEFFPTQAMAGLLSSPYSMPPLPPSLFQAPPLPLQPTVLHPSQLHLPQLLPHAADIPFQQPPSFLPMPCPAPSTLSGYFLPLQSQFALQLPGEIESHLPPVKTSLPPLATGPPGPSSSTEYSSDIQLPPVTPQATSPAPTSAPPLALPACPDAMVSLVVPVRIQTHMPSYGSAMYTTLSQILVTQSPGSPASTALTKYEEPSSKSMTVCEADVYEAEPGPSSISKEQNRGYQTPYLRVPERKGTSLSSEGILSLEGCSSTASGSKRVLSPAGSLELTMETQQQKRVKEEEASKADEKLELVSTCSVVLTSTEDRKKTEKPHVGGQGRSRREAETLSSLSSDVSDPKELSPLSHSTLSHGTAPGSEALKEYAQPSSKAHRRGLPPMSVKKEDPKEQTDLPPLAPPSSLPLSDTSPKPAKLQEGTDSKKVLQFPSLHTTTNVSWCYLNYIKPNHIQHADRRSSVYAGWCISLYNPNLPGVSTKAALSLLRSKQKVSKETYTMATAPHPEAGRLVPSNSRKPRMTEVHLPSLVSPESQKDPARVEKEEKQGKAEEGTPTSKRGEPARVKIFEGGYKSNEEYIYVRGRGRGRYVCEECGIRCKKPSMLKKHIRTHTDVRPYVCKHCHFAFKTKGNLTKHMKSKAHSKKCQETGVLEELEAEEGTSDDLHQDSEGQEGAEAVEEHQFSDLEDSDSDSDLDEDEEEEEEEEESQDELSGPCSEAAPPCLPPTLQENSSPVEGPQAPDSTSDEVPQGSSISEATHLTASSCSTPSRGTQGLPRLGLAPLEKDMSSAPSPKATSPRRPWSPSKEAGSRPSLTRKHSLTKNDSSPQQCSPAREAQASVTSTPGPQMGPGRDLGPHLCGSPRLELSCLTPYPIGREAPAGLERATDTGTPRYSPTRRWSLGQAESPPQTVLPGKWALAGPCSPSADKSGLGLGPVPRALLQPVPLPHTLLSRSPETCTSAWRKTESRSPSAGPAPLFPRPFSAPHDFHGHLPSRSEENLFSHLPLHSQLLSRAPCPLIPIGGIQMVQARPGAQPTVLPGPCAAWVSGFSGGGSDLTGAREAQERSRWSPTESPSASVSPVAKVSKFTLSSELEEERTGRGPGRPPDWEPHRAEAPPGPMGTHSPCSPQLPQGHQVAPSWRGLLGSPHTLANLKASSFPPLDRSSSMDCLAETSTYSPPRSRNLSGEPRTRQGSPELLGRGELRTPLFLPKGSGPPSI

KRC (full-length, overexpressed; tag or construct not further specified), Q5T1R4 1-2406
AP-1 luciferase reporter activity in 293T cells overexpressing c-Jun [1]: 5 fold | AP-1 luciferase reporter activity in 293T cells overexpressing c-Jun plus c-Fos [2]: 5 fold

B1: endogenous c-Jun of EL4 T cells (other, UniProt P05627 1-334, looked up)
chain: MTAKMETTFYDDALNASFLQSESGAYGYSNPKILKQSMTLNLADPVGSLKPHLRAKNSDLLTSPDVGLLKLASPELERLIIQSSNGHITTTPTPTQFLCPKNVTDEQEGFAEGFVRALAELHSQNTLPSVTSAAQPVSGAGMVAPAVASVAGAGGGGGYSASLHSEPPVYANLSNFNPGALSSGGGAPSYGAAGLAFPSQPQQQQQPPQPPHHLPQQIPVQHPRLQALKEEPQTVPEMPGETPPLSPIDMESQERIKAERKRMRNRIAASKCRKRKLERIARLEEKVKTLKAQNSELASTANMLREQVAQLKQKVMNHVNSGCQLMLTQQLQTF
notes: also called AP-1 complexes
binding result [3]: binds

B2: endogenous c-Jun of Jurkat T cells (other, human, UniProt P05412 1-331, looked up)
chain: MTAKMETTFYDDALNASFLPSESGPYGYSNPKILKQSMTLNLADPVGSLKPHLRAKNSDLLTSPDVGLLKLASPELERLIIQSSNGHITTTPTPTQFLCPKNVTDEQEGFAEGFVRALAELHSQNTLPSVTSAAQPVNGAGMVAPAVASVAGGSGSGGFSASLHSEPPVYANLSNFNPGALSSGGGAPSYGAAGLAFPAQPQQQQQPPHHLPQQMPVQHPRLQALKEEPQTVPEMPGETPPLSPIDMESQERIKAERKRMRNRIAASKCRKRKLERIARLEEKVKTLKAQNSELASTANMLREQVAQLKQKVMNHVNSGCQLMLTQQLQTF
notes: also called AP-1 complexes
binding result [4]: binds
